Reference: the supplement of paper PMC9112550, “Optimization of the antimicrobial peptide Bac7 by deep mutational scanning” (BMC Biology, 2022)

System: Escherichia coli TOP10
Assay: shrunken log2 fold change of peptide-encoding DNA abundance (4.5 h post-induction vs induction); higher = less antimicrobial activity (less host growth inhibition)
Conditions: time post-induction: 4.5 h; library: site-saturation at positions 5, 18, 19, 20
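Note: peptides expressed intracellularly from a pBAD plasmid library in pooled LB shake-flask culture, induced with 0.3% L-arabinose, DNA abundance read by NGS, three biological replicates, DESeq2 with apeglm shrinkage.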

RRIRYRPPRLPRPRPRPQDWPRP and RRIRDRPPRLPRPRPRPFVKPRP are within 0.2 log units of each other in “shrunken log2 fold change” value: -0.258 for the first, -0.1 for the second.

RRIRERPPRLPRPRPRPERTPRP and RRIRDRPPRLPRPRPRPMVFPRP are within 0.2 log units of each other in “shrunken log2 fold change” value: 0.0163 for the first, -0.0423 for the second.

First: RRIRDRPPRLPRPRPRPEEKPRP
Second: RRIRYRPPRLPRPRPRPHTHPRP
The “shrunken log2 fold change” value of the first is higher: 0.766 for the first, -1.17 for the second.

Compared with RRIRGRPPRLPRPRPRPHPWPRP, RRIRIRPPRLPRPRPRPLTVPRP is lower in “shrunken log2 fold change” value: 0.345 for the first, -0.114 for the second.

Going from RRIRMRPPRLPRPRPRPQTAPRP to RRIRQRPPRLPRPRPRPTVIPRP, the “shrunken log2 fold change” value falls from 0.524 to -0.0817.

First: RRIRRRPPRLPRPRPRPMFKPRP
Second: RRIRFRPPRLPRPRPRPGHMPRP
The “shrunken log2 fold change” value of the first is higher: 0.168 for the first, -0.0911 for the second.

Compared with RRIRTRPPRLPRPRPRPTDDPRP, RRIRHRPPRLPRPRPRPSNSPRP is lower in “shrunken log2 fold change” value: -0.078 for the first, -0.798 for the second.

First: RRIRKRPPRLPRPRPRPVMEPRP
Second: RRIRYRPPRLPRPRPRPFFSPRP
The “shrunken log2 fold change” value of the first is higher: 0.581 for the first, -0.77 for the second.

Compared with RRIRWRPPRLPRPRPRPIFFPRP, RRIRVRPPRLPRPRPRPWFFPRP is lower in “shrunken log2 fold change” value: 0.125 for the first, -0.148 for the second.

Going from RRIRTRPPRLPRPRPRPFMLPRP to RRIRSRPPRLPRPRPRPSQPPRP, the “shrunken log2 fold change” value rises from -0.706 to -0.14.

Compared with RRIRLRPPRLPRPRPRPQSSPRP, RRIRLRPPRLPRPRPRPLASPRP is higher in “shrunken log2 fold change” value: -0.419 for the first, 0.177 for the second.

RRIRARPPRLPRPRPRPRHMPRP and RRIRERPPRLPRPRPRPRGEPRP are within 0.2 log units of each other in “shrunken log2 fold change” value: -0.00102 for the first, -0.023 for the second.

RRIRFRPPRLPRPRPRPVHEPRP and RRIRTRPPRLPRPRPRPQTWPRP are within 0.2 log units of each other in “shrunken log2 fold change” value: -0.0618 for the first, -0.18 for the second.

RRIRVRPPRLPRPRPRPLHGPRP and RRIRWRPPRLPRPRPRPDTHPRP are within 0.2 log units of each other in “shrunken log2 fold change” value: 0.0379 for the first, 0.219 for the second.

Going from RRIRIRPPRLPRPRPRPFKDPRP to RRIRMRPPRLPRPRPRPAFKPRP, the “shrunken log2 fold change” value falls from -0.0121 to -0.323.

Compared with RRIRYRPPRLPRPRPRPRVDPRP, RRIRSRPPRLPRPRPRPADPPRP is higher in “shrunken log2 fold change” value: -0.531 for the first, 0.0724 for the second.

RRIRARPPRLPRPRPRPEYEPRP and RRIRWRPPRLPRPRPRPVGHPRP are within 0.2 log units of each other in “shrunken log2 fold change” value: 0.262 for the first, 0.243 for the second.

RRIRTRPPRLPRPRPRPGWTPRP and RRIRWRPPRLPRPRPRPFFVPRP are within 0.2 log units of each other in “shrunken log2 fold change” value: 0.24 for the first, 0.173 for the second.

First: RRIRHRPPRLPRPRPRPHIAPRP
Second: RRIRCRPPRLPRPRPRPPKCPRP
The “shrunken log2 fold change” value of the first is lower: -0.0808 for the first, 0.203 for the second.

Compared with RRIRYRPPRLPRPRPRPRAKPRP, RRIRPRPPRLPRPRPRPYSVPRP is lower in “shrunken log2 fold change” value: 0.404 for the first, -1.01 for the second.

Compared with RRIRSRPPRLPRPRPRPYNLPRP, RRIRPRPPRLPRPRPRPTHQPRP is higher in “shrunken log2 fold change” value: -0.573 for the first, 0.615 for the second.

RRIRCRPPRLPRPRPRPGVCPRP and RRIRRRPPRLPRPRPRPWDQPRP are within 0.2 log units of each other in “shrunken log2 fold change” value: 0.117 for the first, 0.0792 for the second.

RRIRPRPPRLPRPRPRPFPTPRP and RRIRERPPRLPRPRPRPVGPPRP are within 0.2 log units of each other in “shrunken log2 fold change” value: -0.189 for the first, -0.0231 for the second.

Compared with RRIRTRPPRLPRPRPRPQVNPRP, RRIRTRPPRLPRPRPRPYDMPRP is higher in “shrunken log2 fold change” value: -0.587 for the first, 0.0197 for the second.

RRIRLRPPRLPRPRPRPPYYPRP and RRIRFRPPRLPRPRPRPCFRPRP are within 0.2 log units of each other in “shrunken log2 fold change” value: -0.292 for the first, -0.45 for the second.

RRIRARPPRLPRPRPRPCSQPRP and RRIRERPPRLPRPRPRPSSTPRP are within 0.2 log units of each other in “shrunken log2 fold change” value: -0.172 for the first, -0.32 for the second.

Going from RRIRPRPPRLPRPRPRPFLDPRP to RRIRMRPPRLPRPRPRPHENPRP, the “shrunken log2 fold change” value rises from -0.413 to 0.218.

First: RRIRERPPRLPRPRPRPNFAPRP
Second: RRIRCRPPRLPRPRPRPLWNPRP
The “shrunken log2 fold change” value of the first is higher: 0.387 for the first, -0.208 for the second.

Compared with RRIRTRPPRLPRPRPRPNKGPRP, RRIRPRPPRLPRPRPRPNFWPRP is higher in “shrunken log2 fold change” value: -0.28 for the first, 0.153 for the second.

Compared with RRIRSRPPRLPRPRPRPELMPRP, RRIRRRPPRLPRPRPRPAAFPRP is higher in “shrunken log2 fold change” value: 0.469 for the first, 0.967 for the second.

First: RRIRDRPPRLPRPRPRPCSYPRP
Second: RRIRPRPPRLPRPRPRPGWVPRP
The “shrunken log2 fold change” value of the first is lower: -0.138 for the first, 0.405 for the second.

RRIRLRPPRLPRPRPRPDGVPRP and RRIRPRPPRLPRPRPRPDPFPRP are within 0.2 log units of each other in “shrunken log2 fold change” value: -0.0786 for the first, -0.0897 for the second.

First: RRIRIRPPRLPRPRPRPKKEPRP
Second: RRIRARPPRLPRPRPRPVMFPRP
The “shrunken log2 fold change” value of the first is lower: -0.438 for the first, 0.283 for the second.

RRIRTRPPRLPRPRPRPHIGPRP and RRIRYRPPRLPRPRPRPNGDPRP are within 0.2 log units of each other in “shrunken log2 fold change” value: -0.156 for the first, -0.112 for the second.

First: RRIRNRPPRLPRPRPRPSIQPRP
Second: RRIRSRPPRLPRPRPRPECAPRP
The “shrunken log2 fold change” value of the first is lower: -0.623 for the first, 0.784 for the second.

RRIRPRPPRLPRPRPRPRVVPRP and RRIRARPPRLPRPRPRPEHQPRP are within 0.2 log units of each other in “shrunken log2 fold change” value: 0.341 for the first, 0.399 for the second.

First: RRIRGRPPRLPRPRPRPEEAPRP
Second: RRIRSRPPRLPRPRPRPIAIPRP
The “shrunken log2 fold change” value of the first is higher: 2.32 for the first, -0.0732 for the second.

First: RRIRNRPPRLPRPRPRPDIFPRP
Second: RRIRGRPPRLPRPRPRPGFIPRP
The “shrunken log2 fold change” value of the first is lower: -0.172 for the first, 0.0369 for the second.

Compared with RRIRCRPPRLPRPRPRPHQYPRP, RRIRIRPPRLPRPRPRPYYYPRP is lower in “shrunken log2 fold change” value: -0.05 for the first, -1.08 for the second.

RRIRPRPPRLPRPRPRPVNFPRP and RRIRQRPPRLPRPRPRPNINPRP are within 0.2 log units of each other in “shrunken log2 fold change” value: -0.59 for the first, -0.633 for the second.

RRIRSRPPRLPRPRPRPLNKPRP and RRIRIRPPRLPRPRPRPAIHPRP are within 0.2 log units of each other in “shrunken log2 fold change” value: -0.343 for the first, -0.475 for the second.

First: RRIRIRPPRLPRPRPRPLCCPRP
Second: RRIRPRPPRLPRPRPRPIHEPRP
The “shrunken log2 fold change” value of the first is lower: -0.317 for the first, 0.152 for the second.

First: RRIRGRPPRLPRPRPRPGCFPRP
Second: RRIRMRPPRLPRPRPRPETWPRP
The “shrunken log2 fold change” value of the first is lower: 1.1 for the first, 1.44 for the second.

Compared with RRIRSRPPRLPRPRPRPWFEPRP, RRIRPRPPRLPRPRPRPRPKPRP is higher in “shrunken log2 fold change” value: -0.0139 for the first, 3.22 for the second.

RRIRHRPPRLPRPRPRPIRYPRP and RRIRGRPPRLPRPRPRPQYFPRP are within 0.2 log units of each other in “shrunken log2 fold change” value: 0.0301 for the first, -0.141 for the second.

First: RRIRRRPPRLPRPRPRPIQKPRP
Second: RRIRFRPPRLPRPRPRPDTHPRP
The “shrunken log2 fold change” value of the first is higher: -0.218 for the first, -0.618 for the second.

Compared with RRIRKRPPRLPRPRPRPPSLPRP, RRIRRRPPRLPRPRPRPPHWPRP is higher in “shrunken log2 fold change” value: 0.46 for the first, 0.932 for the second.

RRIRSRPPRLPRPRPRPECMPRP and RRIRQRPPRLPRPRPRPSRSPRP are within 0.2 log units of each other in “shrunken log2 fold change” value: 0.00574 for the first, -0.117 for the second.

RRIRLRPPRLPRPRPRPIMFPRP and RRIRVRPPRLPRPRPRPKHDPRP are within 0.2 log units of each other in “shrunken log2 fold change” value: -0.488 for the first, -0.31 for the second.

Compared with RRIRPRPPRLPRPRPRPSWAPRP, RRIRIRPPRLPRPRPRPTYNPRP is lower in “shrunken log2 fold change” value: 0.0666 for the first, -0.783 for the second.

Compared with RRIRRRPPRLPRPRPRPDAQPRP, RRIRCRPPRLPRPRPRPPPVPRP is higher in “shrunken log2 fold change” value: 0.471 for the first, 1.24 for the second.

Compared with RRIRLRPPRLPRPRPRPSQVPRP, RRIRVRPPRLPRPRPRPLMKPRP is higher in “shrunken log2 fold change” value: -0.573 for the first, -0.269 for the second.

Compared with RRIRQRPPRLPRPRPRPWMAPRP, RRIRMRPPRLPRPRPRPQFTPRP is higher in “shrunken log2 fold change” value: -0.147 for the first, 0.095 for the second.

Compared with RRIRDRPPRLPRPRPRPRVCPRP, RRIRVRPPRLPRPRPRPEYSPRP is lower in “shrunken log2 fold change” value: 0.372 for the first, -0.273 for the second.

In the case of RRIRHRPPRLPRPRPRPYRCPRP, the “shrunken log2 fold change” value is reported as 0.0121.
